IntAct's records for PubMed 21768349

B1: DNA repair protein XRCC4 (Homo sapiens), Q13426 (parent)
chain: MERKISRIHLVSEPSITHFLQVSWEKTLESGFVITLTDGHSAWTGTVSESEISQEADDMAMEKGKYVGELRKALLSGAGPADVYTFNFSKESCYFFFEKNLKDVSFRLGSFNLEKVENPAEVIRELICYCLDTIAENQAKNEHLQKENERLLRDWNDVQGRFEKCVSAKEALETDLYKRFILVLNEKKTKIRSLHNKLLNAAQEREKDIKQEGETAICSEMTADRDPVYDESTDEESENQTDLSGLASAAVSKDDSIISSLDVTDIAPSRKRRQRMQRNLGTEPKMAPQENQLQEKENSRPDSSLPETSKKEHISAENMSLETLRNSSPEDLFDEI

Variants of: B1
Conditions: with NHEJ1, Q9H9Q4-1
Chain of NHEJ1, Q9H9Q4-1 (Q9H9Q4 whole entry): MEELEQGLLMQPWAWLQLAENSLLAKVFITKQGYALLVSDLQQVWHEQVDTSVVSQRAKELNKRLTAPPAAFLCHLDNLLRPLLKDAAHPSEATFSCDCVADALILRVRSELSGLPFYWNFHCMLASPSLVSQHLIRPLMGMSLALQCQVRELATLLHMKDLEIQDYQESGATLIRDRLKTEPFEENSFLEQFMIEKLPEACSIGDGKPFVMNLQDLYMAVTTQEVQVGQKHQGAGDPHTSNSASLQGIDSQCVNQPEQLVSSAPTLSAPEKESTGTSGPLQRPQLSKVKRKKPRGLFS

Row | Variant | effect of a mutation on the interaction
1 | D58R | disrupting interaction strength
2 | M61R | disrupting interaction strength
3 | F106Y | decreasing interaction strength
4 | F106A | decreasing interaction strength
5 | F106E | disrupting interaction strength
6 | E55R | disrupting interaction strength
7 | K65E | decreasing interaction strength
